From PMC9771472, “Tenuous transcriptional threshold of human sex determination. II. SRY exploits water-mediated clamp at the edge of ambiguity”

Key:
SRY HMG box WT [1] = target: T1, SRY HMG box WT (human, UniProt Q05066 57-141); assay: steady-state FRET; reference; Kd values in Table S7 not in material; FRET: 10 mM potassium phosphate, 10 mM Tris-HCl, 140 mM KCl, pH 8.0, 15 and 37 C, 25 nM DNA (Kd); sf-FRET 1 uM complex + 20 uM unlabelled DNA at 10, 15, 25, 37; conditions: protein: recombinant; label: 5'-fluorescein (upper strand); 5'-TAMRA (lower strand), hexanyl linkers; blunt
SRY HMG box Y72W [2] = target: T2, SRY HMG box Y72W (human, UniProt Q05066 57-141, Y127W); assay: steady-state FRET; stopped-flow FRET; high affinity retained; slight koff increase; FRET: 10 mM potassium phosphate, 10 mM Tris-HCl, 140 mM KCl, pH 8.0, 15 and 37 C, 25 nM DNA (Kd); sf-FRET 1 uM complex + 20 uM unlabelled DNA at 10, 15, 25, 37; conditions: protein: recombinant; label: 5'-fluorescein (upper strand); 5'-TAMRA (lower strand), hexanyl linkers; blunt
SRY HMG box Y72C = SRY HMG box Y72C (human, UniProt Q05066 57-141, Y127C); assay: stopped-flow FRET; near-native affinity (Kd from companion paper); koff 26(+/-1.3)-fold faster than WT at 10 C; FRET: 10 mM potassium phosphate, 10 mM Tris-HCl, 140 mM KCl, pH 8.0, 15 and 37 C, 25 nM DNA (Kd); sf-FRET 1 uM complex + 20 uM unlabelled DNA at 10, 15, 25, 37; conditions: protein: recombinant; label: 5'-fluorescein (upper strand); 5'-TAMRA (lower strand), hexanyl linkers; blunt
SRY HMG box Y72H = SRY HMG box Y72H (human, UniProt Q05066 57-141, Y127H); assay: stopped-flow FRET; near-native affinity (Kd from companion paper); koff 14(+/-0.38)-fold faster than WT at 10 C; FRET: 10 mM potassium phosphate, 10 mM Tris-HCl, 140 mM KCl, pH 8.0, 15 and 37 C, 25 nM DNA (Kd); sf-FRET 1 uM complex + 20 uM unlabelled DNA at 10, 15, 25, 37; conditions: protein: recombinant; label: 5'-fluorescein (upper strand); 5'-TAMRA (lower strand), hexanyl linkers; blunt
SRY HMG box Y72F [3] = target: T3, SRY HMG box Y72F (human, UniProt Q05066 57-141, Y127F); assay: steady-state FRET; stopped-flow FRET; native-like affinity; koff about 4-fold faster than WT at 37 C, compensated by kon; FRET: 10 mM potassium phosphate, 10 mM Tris-HCl, 140 mM KCl, pH 8.0, 15 and 37 C, 25 nM DNA (Kd); sf-FRET 1 uM complex + 20 uM unlabelled DNA at 10, 15, 25, 37; conditions: protein: recombinant; label: 5'-fluorescein (upper strand); 5'-TAMRA (lower strand), hexanyl linkers; blunt
SRY HMG box Y72A = SRY HMG box Y72A (human, UniProt Q05066 57-141, Y127A); assay: CD; 25 uM each; least shifted toward A-DNA; FRET: 10 mM potassium phosphate, 10 mM Tris-HCl, 140 mM KCl, pH 8.0, 15 and 37 C, 25 nM DNA (Kd); sf-FRET 1 uM complex + 20 uM unlabelled DNA at 10, 15, 25, 37; conditions: protein: recombinant; blunt
SRY HMG box Y72W [4] = target: T2, SRY HMG box Y72W; assay: CD; 25 uM each; A-form features in bound DNA; FRET: 10 mM potassium phosphate, 10 mM Tris-HCl, 140 mM KCl, pH 8.0, 15 and 37 C, 25 nM DNA (Kd); sf-FRET 1 uM complex + 20 uM unlabelled DNA at 10, 15, 25, 37; conditions: protein: recombinant; blunt
SRY HMG box Y72F [5] = target: T3, SRY HMG box Y72F; assay: NMR (1H imino, NOESY, 15N HSQC); CD; 1:1, 25 C, 10 mM K-phosphate pH 7.4, 50 mM KCl (NMR); FRET: 10 mM potassium phosphate, 10 mM Tris-HCl, 140 mM KCl, pH 8.0, 15 and 37 C, 25 nM DNA (Kd); sf-FRET 1 uM complex + 20 uM unlabelled DNA at 10, 15, 25, 37; conditions: protein: recombinant; blunt
SRY HMG box WT [6] = target: T1, SRY HMG box WT; assay: as above; conditions: protein: recombinant; blunt

Measured: binding result

T2 sequence (Q05066 57-141 Y127W): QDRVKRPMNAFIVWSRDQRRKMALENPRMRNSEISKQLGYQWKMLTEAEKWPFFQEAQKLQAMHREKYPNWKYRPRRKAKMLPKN
T1 sequence (Q05066 57-141): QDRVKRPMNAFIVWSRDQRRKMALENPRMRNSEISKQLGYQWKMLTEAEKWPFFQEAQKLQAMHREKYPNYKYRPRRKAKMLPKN
T3 sequence (Q05066 57-141 Y127F): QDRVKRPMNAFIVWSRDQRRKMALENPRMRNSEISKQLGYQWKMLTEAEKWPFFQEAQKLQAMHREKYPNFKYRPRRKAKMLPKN
Chain of SRY HMG box Y72H (Q05066 57-141 Y127H): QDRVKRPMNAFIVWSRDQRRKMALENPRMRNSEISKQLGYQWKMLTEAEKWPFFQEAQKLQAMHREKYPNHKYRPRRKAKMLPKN
Chain of SRY HMG box Y72C (Q05066 57-141 Y127C): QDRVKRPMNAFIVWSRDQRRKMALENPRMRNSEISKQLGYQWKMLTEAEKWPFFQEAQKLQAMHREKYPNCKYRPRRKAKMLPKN
Chain of SRY HMG box Y72A (Q05066 57-141 Y127A): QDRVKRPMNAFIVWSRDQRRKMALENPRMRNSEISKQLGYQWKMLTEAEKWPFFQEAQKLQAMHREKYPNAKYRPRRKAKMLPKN

B1: 15-bp SRY site, FRET-labelled (dsDNA)
DNA 1: TCGGTGATTGTTCAG
DNA 2: CTGAACAATCACCGA
binds: SRY HMG box WT [1] | SRY HMG box Y72W [2] | SRY HMG box Y72C | SRY HMG box Y72H | SRY HMG box Y72F [3]

B2: 15-bp SRY site, unlabelled (dsDNA)
DNA 1: TCGGTGATTGTTCAG
DNA 2: CTGAACAATCACCGA
binds: SRY HMG box Y72A | SRY HMG box Y72W [4] | SRY HMG box Y72F [5] | SRY HMG box WT [6]
